Source: article PMC13371181, “A paracrine-to-autocrine shunt of GREM1 fuels colorectal cancer metastasis via ACVR1C” (Molecular Cancer, 2026)
Entries after “also recorded” stand apart in the source; their conditions may differ. Each block holds one molecule with its values, some of them ahead of it.

What was measured:
[1] = tested on: BMP signaling (p-SMAD1/5/9 versus p-SMAD2/3); details: sb4; cited from earlier work
Text: Considering that GREM1 is a canonical antagonist of BMP and that BMPRs exert their function through phosphorylation of SMAD1/5/9 (p-SMAD1/5/9), we sought to determine whether GREM1 regulates EMT via BMPR superfamily pathways. […] This definitive exclusion of BMPR–SMAD1/5/9 involvement establish ...

HCT116 and SW480 cells = test: EMT markers by immunoblotting and RT–qPCR; format: cell-based, human; details: GREM1-CM + GREM1 BAb, + SB505124 (1 µM) or + different concentrations of sb4 (sb4: immunoblotting)
Experimental: (§1) To investigate the effect of secreted GREM1 on CRC cells, an in vitro GREM1 secretion system was established using HEK293 cells. Stably GREM1-expressing cells (pcDNA3.1-GREM1) and empty-vector transfected cells (pcDNA3.1) were cultured in DMEM/F12 medium with 10% FBS until 40% confluence. After complete removal of the normal culture medium, HEK293-GREM1 and HEK293-Vec cells were continuously cultured in DMEM/F12 medium without FBS for 5 days before medium collection. GREM1 or Vector conditioned medium (GREM1-CM/Vec-CM) was then centrifuged at 1000 rpm for 30 min and the supernatant was collected for further study.
(§2) Protein was extracted from the cells with RIPA buffer (Beyotime, P0018) or NP40 lysis buffer (Beyotime, P0013F) and separated by SDS-PAGE, and transferred to polyvinylidene difluoride membranes. […] Band intensity was quantified using Fiji (ImageJ) by grayscale analysis.
(§3) Total RNA was extracted using Trizol reagent (Invitrogen, 15596026). […] The SYBR Green Premix Pro Taq HS qPCR Kit (Accurate Biology, AG11701) was then used to quantify mRNA expression according to the manufacturer’s instructions. All results were calculated using the 2^−ΔΔCt method. […]

ACVR1C = test: Co-immunoprecipitation of GREM1 and ACVR1C; format: binding, human; details: HCT116 cells, HA-tagged GREM1, anti-HA
Experimental: (§4) HCT116 cells were transfected with the indicated plasmids and lysed in NP40 lysis buffer (Beyotime, P0013F) supplemented with protease inhibitor cocktail (Thermo, 78446). Lysates were incubated with the indicated Anti-Flag nanobody magarose beads (Ktsm-life, KTSM1338), Anti-HA nanobody magarose beads (Ktsm-life, KTSM1335) or Anti-GFP nanobody magarose beads (Ktsm-life, KTSM1334) overnight at 4 °C. The protein complex was washed four times with the NP40 lysis buffer, eluted with 1×loading buffer (Beyotime, P0015) by boiling for 5 min, followed by mass spectrometry and immunoblotting with the indicated antibodies.
(§5) Protein was extracted from the cells with RIPA buffer (Beyotime, P0018) or NP40 lysis buffer (Beyotime, P0013F) and separated by SDS-PAGE, and transferred to polyvinylidene difluoride membranes. Primary antibodies against GREM1 (1:1,000, SinoBiological, 50016-R117), ACVR1C (1:1,000, Thermo, PA587475), Flag-tag (1:1,000, CST, 14793), HA-tag (1:1,000, CST, 3724), E-Cadherin (1:1,000, CST, 3195), β-Catenin (1:1,000, CST, 8480), ZEB1 (1:1,000, CST, 3396), Snail (1:1,000, CST, 3879), SMAD2/3 (1:1,000, CST, 8685), p-SMAD2/3 (1:1,000, CST, 8828), SMAD1 (1:1,000, CST, 6944), p-SMAD1/5/9 (1:1,000, CST, 13820), TGFβ (1:1,000, CST, 3709), TGFβR1 (0.3 µg/mL, R&D, AF3025), β-actin (1:5,000, Beyotime, AF0003) and GAPDH (1:5,000, Beyotime, AF0006) were used in this study. Peroxidase-conjugated secondary antibody (1:10,000, Cell Signaling Technology, 7074, 7076) was used and signal was visualized using an enhanced chemiluminescence assay (ECL, Thermo), according to the manufacturer’s protocol. Band intensity was quantified using Fiji (ImageJ) by grayscale analysis.

ACVR1C-ECD = test: MST binding of ACVR1C-ECD-Fc to GREM1-His or ACTIVIN B-His; design: species or system human
Text: (§6) Expi293F cells were transfected with a pcDNA3.4-ACVR1C-ECD-Fc and pcDNA3.4-ACVR1C-ECD-Fc-double mutant (E85A/T101A) expression vector to produce the target protein, which was subsequently purified using a Protein G column. Briefly, the coding sequence (CDS) of the human ACVR1C extracellular domain (ACVR1C-ECD, NM_145259.3, residues 1–113) fused to an Fc tag was cloned into the pcDNA3.4 vector. Expi293F cells were transfected with this construct, the supernatant was harvested 5 days post transfection.
(§7) MST was carried out on a Monolith NT.115 instrument (NanoTemper Technologies GmbH, MO-L011). To evaluate ACVR1C-ECD or ACVR1C peptide or ACVR1C-ECD-double mutant (E85A/T101A) binding to GREM1-His or ACTIVIN B-His, an increasing concentration of purified ACVR1C-ECD-Fc protein (0–27.5 µM) or ACVR1C peptide (0–2.3 µM) or ACVR1C-ECD-double mutant (0–27.5 µM) was incubated with 50 nM red-fluorescently labeled (NanoTemper Technologies GmbH, MO-L011) GREM1-His protein (R&D, 5190-GR) or ACTIVIN B-His protein (SinoBiological, 10814-H08H). Experiments were carried out in a PBS buffer pH 7.4 using premium capillaries (NanoTemper Technologies GmbH, MO-K025).

HCT116 cells = test: Subcutaneous transplantation of GREM1-CM-pretreated HCT116 cells in nude mice; format: in vivo, human cells in nude mice; details: subcutaneous model, HCT116 cells pretreated with GREM1-CM (Figures S8A–C)
Experimental: For cecum-to-liver metastasis model, 1 × 10^6 MC38-luc cells were resuspended in 50 µL of PBS and injected into the cecum of GD mice or control mice (Grem1-CreER^T2/Rosa-LSL-DTA mice) (n = 6 mice in each group); 5 × 10^6 HCT116-luc cells transduced with lentivirus carrying a pLV or pLV-GREM1 were injected into the cecum of NOG mice (n = 5 mice in each group). SB505124 was administered via intraperitoneal injection at a dose of 10 mg/kg once every other day. The metastases were examined every 5 days post injection using an IVIS Lumina Imaging System. Mice were euthanized between 2 and 6 weeks after injection. […] Mice were euthanized 4 weeks after injection. The tumor tissues were collected for further evaluation.
Figure S8. SB505124 inhibits GREM1-CM-induced EMT and metastasis of CRC in vivo. […] D, RT–qPCR analysis of epithelial marker CDH1 and mesenchymal markers CTNNB1, SNAI1, ZEB1 in subcutaneous tumor tissues from the indicated treatment groups. n = 3 independent experiments. E-G, Representative IF images (E) and quantification (F, G) of E-CAD (green), SNAIL (red), and DAPI (blue) staining in tumors from the indicated groups. […] H, I, Representative IVIS images (H) and quantification (I) of NOG mice that were injected with HCT116-luc cells in the cecum wall and treated with either SB505124 or vehicle via abdominal injection. Liver metastases were imaged and quantified using the IVIS Lumina Imaging System (n = 5 mice per group). For B–D, F, G and I, data are presented as mean ± s.e.m. P values were calculated using one-way ANOVA with Bonferroni multiple-comparison test (B–D, F, and G) or two-tailed Student’s t-test (I).

TGFβR1 = test: Co-immunoprecipitation of GREM1 and TGFβR1; format: binding, human; details: HCT116 cells, HA-tagged GREM1, anti-HA
Experimental: as §4, §2

[2] = tested on: BMPR–SMAD1/5/9 pathway in HCT116 or SW480 cells; test: Immunoblotting p-SMAD1/5/9 (BMPR pathway); format: cell-based, human; details: rhGREM1 gradient
Text: as §5

[3] = tested on: CRC cells (SW480, HCT116, and MC38); test: GREM1 withdrawal assay, RT–qPCR and immunoblot; format: cell-based, human (SW480, mouse (MC38); details: rhGREM1 or rmGrem1 200 ng/mL 24 h, then GREM1-free medium 2 and 4 days
Experimental: To determine whether tumor cells that have acquired signaling autonomy can sustain GREM1 expression in the absence of external stimulation, we performed a GREM1 withdrawal assay. CRC cells (SW480, HCT116, and MC38) were first pulsed with rhGREM1 or recombinant mouse GREM1 (rmGrem1) for 24 h to initiate the signaling response. The medium containing rhGREM1 or rmGrem1 was then thoroughly removed, replaced with fresh GREM1-free medium, and the cells were cultured for an additional 4 days. […] This persistent, self-sustaining expression supports our conclusion that the initial rhGREM1 or rmGrem1 stimulation triggers a positive feedback loop of GREM1 transcription within CRC cells.
as §2, §3

[4] = tested on: ACVR1C–SMAD2/3 pathway in HCT116 and SW480 cells; test: Immunoblotting p-SMAD2/3 (ACVR1C pathway); format: cell-based, human; details: SW480 and HCT116 cells, increasing concentrations of rhGREM1
Experimental: as §1, §2

SW480 and HCT116 cells = test: Endogenous GREM1 expression by RT–qPCR and immunoblotting; format: cell-based, human; details: increasing concentrations of rhGREM1, RT–qPCR (n = 3) and immunoblotting
Text: as §5, §3

[5] = tested on: TGFβ or TGFβR1 in CRC cells; test: Immunoblotting TGFβ and TGFβR1 expression; format: cell-based, human; details: CRC cells (HCT116, SW480), rhGREM1 gradient
Text: as §5

GREM1 = molecular target: T1, GREM1 (Homo sapiens, UniProt O60565); test: MST binding of ACVR1C-ECD double mutant (E85A/T101A) to GREM1-His; details: double mutant 0–27.5 µM vs 50 nM red-labeled GREM1-His, PBS pH 7.4
T1 construct: His; purchased R&D 5190-GR
T1 sequence (O60565 25-184): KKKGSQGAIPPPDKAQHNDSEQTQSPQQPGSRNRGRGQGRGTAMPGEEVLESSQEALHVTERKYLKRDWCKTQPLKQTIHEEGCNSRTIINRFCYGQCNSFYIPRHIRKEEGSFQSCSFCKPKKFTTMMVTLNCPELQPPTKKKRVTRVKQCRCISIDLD
Text: as §6, §7

Molecule: Brc1ccc(CSc2nc3ccccc3o2)cc1 [sb4]
p-SMAD1/5/9 selectivity [1]: exclusively increases p-SMAD1/5/9 without affecting p-SMAD2/3
GREM1-CM-induced EMT, effect of treatment (HCT116 and SW480 cells): failed to reverse GREM1-induced EMT

B2: rhGREM1: recombinant human GREM1 (protein)
chain: KKKGSQGAIPPPDKAQHNDSEQTQSPQQPGSRNRGRGQGRGTAMPGEEVLESSQEALHVTERKYLKRDWCKTQPLKQTIHEEGCNSRTIINRFCYGQCNSFYIPRHIRKEEGSFQSCSFCKPKKFTTMMVTLNCPELQPPTKKKRVTRVKQCRCISIDLD
modifications: red fluorescent label (NanoTemper, MO-L011) in the MST assays; left off: His, end not stated, kept
notes: recombinant human GREM1
p-SMAD1/5/9 [2]: suppressed the p-SMAD1/5/9
endogenous GREM1 expression after withdrawal [3]: not only maintained but in some cases further increased even after the withdrawal of exogenous GREM1; also recorded: maintained elevated endogenous GREM1 expression even after withdrawal of exogenous GREM1
p-SMAD2/3, concentration gradient [4]: dose-dependent increase in p-SMAD2/3
endogenous GREM1 expression (SW480 and HCT116 cells): dose-dependent upregulation of tumor GREM1 expression
TGFβ or TGFβR1 expression [5]: No changes were observed across all doses tested

More lines, main results first:

affinity for ACVR1C relative to ACTIVIN B, in words (ACVR1C-ECD): superior affinity
fold higher affinity for ACVR1C-ECD than ACTIVIN B (ACVR1C-ECD; GREM1 Kd versus ACTIVIN B Kd): 12.6 fold
Kd (ACVR1C-ECD; Monolith NT.115, ACVR1C-ECD-Fc 0–27.5 µM vs 50 nM red-fluorescently labeled His-protein, PBS pH 7.4, premium capillaries, n = 3 independent experiments, mean ± s.e.m.): 67.7 ± 10.3 nM
B1: GREM1: GREM1-His protein (R&D, 5190-GR) in MST; HA-tagged GREM1 in co-IP (protein)
chain: KKKGSQGAIPPPDKAQHNDSEQTQSPQQPGSRNRGRGQGRGTAMPGEEVLESSQEALHVTERKYLKRDWCKTQPLKQTIHEEGCNSRTIINRFCYGQCNSFYIPRHIRKEEGSFQSCSFCKPKKFTTMMVTLNCPELQPPTKKKRVTRVKQCRCISIDLD
modifications: left off: HA, end not stated, kept | mCherry, end not stated, kept
notes: GREM1-His protein (R&D, 5190-GR) in MST; HA-tagged GREM1 in co-IP
co-IP interaction with ACVR1C (ACVR1C): co-immunoprecipitates with ACVR1C; also recorded: interacted with ACVR1C specifically
effect on subcutaneous tumor proliferation (HCT116 cells): pro-proliferative effect
co-IP interaction with TGFβR1 (TGFβR1): no such interaction was detected; also recorded: no direct interaction

binding of ACVR1C-ECD double mutant to GREM1 (GREM1): no detectable interaction
B3: ACVR1C-ECD double mutant (E85A/T101A): human ACVR1C extracellular domain fused to an Fc tag, double mutant E85A/T101A (protein)
chain: ELSPGLKCVCLLCDSSNFTCQTEGACWASVMLTNGKEQVIKSCVSLPELNAQVFCHSSNNVTKTACCFTDFCNNITLHLPAASPNAPKLGPME
modifications: left off: Fc, end not stated, kept
